Measured values: patent US6991794B1, “Progenitor cell preservation factors and methods for and products of their use” (ImClone Systems Incorporated, priority 1997, dated 2006)

Columns and labels:
untransfected 3T3 cells = assay: untransfected parent 3T3 control cells (XTT); assay type: cell-based; conditions: Example 5 serum-free conditions
Protocol: Specifically, 3T3 cells cultured in tissue culture plates (Becton Dickinson Labware, Lincoln Park, N.J.) were removed from the plates by washing cells twice in Hank's buffered saline solution (HBSS; Gibco Laboratories, Grand Island, N.Y.). Non-enzymatic cell dissociation buffer (Gibco) was added for 15 minutes at room temperature. The resulting cells were washed in medium. FLT3 3T3 cells were cultured at a final concentration of 3,000 cells per well in a volume of 100 μL of serum-defined medium containing […] rhIL1-α, 10% AIMV (Gibco, Grand Island, N.Y.) and 90% Dulbecco's modification of Eagle's medium (DMEM; Gibco) in 96 well plates. […] Proliferation and cell survival was quantitated by addition of XTT (2, 3-bis[Methoxy-4-nitro-5sulfophenyl]-2H-tetrazolium-5 carboxanilide inner salt) (Diagnostic Chemicals Ltd, Charlottetown, Prince Edward Island, Canada), which is a […] cleaved by actively respiring cells (Roehm et al., J. Immunol. Methods 142: 257-265, 1991). Proliferation and cell survival was quantitated spectrophotometrically using a Vmax kinetic plate reader (Molecular Devices Corp., Mountain View, Calif.), and recorded as either relative activity (units/mL) or as specific activity (units/mg). One unit of biological activity was defined as the reciprocal dilution at which half-maximal stimulation of cells is detected. […]

[1] = system: Flt3-expressing 3T3 cells; assay: Flt3 3T3 assay during purification of Pv-FRIL; assay type: cell-based; conditions: 80,000-fold purification; IL1-α or PHA-LCM as co-factor
Protocol: To create factor-dependence for receptor-transfected 3T3 cells, growth conditions were compromised to permit only ligands to rescue cells from death. To do this, 3T3 cell lines were assayed in 96 well plates (Becton Dickinson Labware, Lincoln Park, N.J.) containing 3,000 cells in 100 μL of serum-free medium consisting of 10% AIMV (Life Technologies) and 90% DMEM. In each experiment, samples were serially diluted two-fold across rows starting at a 1:10 dilution. Viable cells were quantitated after 3-5 days by XTT (2,3-bis[Methoxy-4-nitro-5sulfophenyl]-2H-tetrazolium-5 carboxanilide inner salt) (Sigma, St. Louis, Mo.) (Roehm et al., supra). Relative activity (units/ml) and specific activity (units/mg) are defined as the reciprocal dilution at which half-maximal stimulation of cells was detected.
Each batch of PHA-LCM was generated in serum-free medium with cells from individual normal donors. To start purification, the PHA-LCM with Flt3 3T3 activity was pooled in 30 liter lots with approximately 10^7 Flt3 3T3 units. Twenty-five liters of PHA-LCM was diafiltered into 50 mM Tris-HCl, pH 7.6, 50 mM NaCl and then concentrated to 2-2.5 liters by tangential flow ultrafiltration on a 10 kDa molecular weight cutoff membrane (Pellicon, Millipore, Bedford, Mass.). A Blue-sepharose FF (Pharmacia Biotech) column (10 cm×15 cm) was equilibrated with 50 mM Tris-HCl, pH 7.4,50 mM NaCl. […]

B1: Pv-FRIL: FRIL family mannose-binding lectin from Phaseolus vulgaris (red kidney bean), SEQ ID NO: 6 (protein)
chain: AQSLSFNFTKFDLDQKDLIFQGDATSTNNVLQLTKLDSGGNPVGASVGRVLFSAPFHLWENSMAVSSFETNLTIQISTPHPYYAADGFAFFLAPHDTVIPPNSWGKFLGLYSNVFRNSPTSENQSFGDVNTDSRVVAVEFDTFPNANIDPNYRHIGIDVNSIKSKETARWEWQNGKTATARISYNSASKKSTVTTFYPGMEVVALSHDVDLHAELPEWVRVGLSASTGEEKQKNTIISWSFTSSLKNNEVKEPKEDMYIANVVRSYTWINDVLSYISNKMYDALNNNHKYVRCSTCMLFMKKK
response of parent untransfected 3T3 cells (untransfected 3T3 cells): did not
specific activity of purified fraction [1]: 244,500 units/mg
